T1: Maltose Binding Protein (MBP)-fused Nop58p_447 (S. cerevisiae, UniProt Q12499 1-447)
T1 chain: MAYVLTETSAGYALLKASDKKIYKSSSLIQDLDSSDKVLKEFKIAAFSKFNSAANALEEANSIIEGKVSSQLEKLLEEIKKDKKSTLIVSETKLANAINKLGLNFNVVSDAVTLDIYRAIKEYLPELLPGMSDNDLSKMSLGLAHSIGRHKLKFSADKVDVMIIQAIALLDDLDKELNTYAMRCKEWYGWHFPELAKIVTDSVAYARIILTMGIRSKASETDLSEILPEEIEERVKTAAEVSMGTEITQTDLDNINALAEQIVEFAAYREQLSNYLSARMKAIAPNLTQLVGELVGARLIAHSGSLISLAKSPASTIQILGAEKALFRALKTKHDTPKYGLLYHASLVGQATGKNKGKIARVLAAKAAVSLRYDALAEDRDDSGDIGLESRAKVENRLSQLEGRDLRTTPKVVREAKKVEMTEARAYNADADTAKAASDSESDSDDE

B1: Maltose Binding Protein (MBP)-fused Nop58p_447 (domain or fragment, S. cerevisiae, UniProt Q12499 1-447, looked up)
chain: MAYVLTETSAGYALLKASDKKIYKSSSLIQDLDSSDKVLKEFKIAAFSKFNSAANALEEANSIIEGKVSSQLEKLLEEIKKDKKSTLIVSETKLANAINKLGLNFNVVSDAVTLDIYRAIKEYLPELLPGMSDNDLSKMSLGLAHSIGRHKLKFSADKVDVMIIQAIALLDDLDKELNTYAMRCKEWYGWHFPELAKIVTDSVAYARIILTMGIRSKASETDLSEILPEEIEERVKTAAEVSMGTEITQTDLDNINALAEQIVEFAAYREQLSNYLSARMKAIAPNLTQLVGELVGARLIAHSGSLISLAKSPASTIQILGAEKALFRALKTKHDTPKYGLLYHASLVGQATGKNKGKIARVLAAKAAVSLRYDALAEDRDDSGDIGLESRAKVENRLSQLEGRDLRTTPKVVREAKKVEMTEARAYNADADTAKAASDSESDSDDE
notes: In the cross-linking and cryo-EM sections the text often calls this MBP fusion simply Nop58p_447; also called MBP-Nop58p_447; MBP-Nop58_447; source: E. coli, purified (amylose, monoQ, gel filtration); not shown: MBP, N-terminal, kept

Legend:
[1] = target: B1; assay: ITC; MBP-Nop58p in the sample cell (MBP-Nop58p_447 at 7.8 μM), Pih1p-Tah1p in the injector at 99.6 μM; 25 °C; 25 mM HEPES, 150 mM NaCl, 5% glycerol, 5 mM beta-ME, pH 7.5; One Site model; conditions: both partners purified
[2] = target: T1, Maltose Binding Protein (MBP)-fused …; assay: ITC
[3] = target: T2, Rvb1p (yeast, UniProt Q03940 1-463); assay: cross-linking; co-purified MBP-Nop58p_447-R2TP complex, BS3-d0/BS3-d4 for 30 min, SDS-PAGE, trypsin, mass spectrometry; conditions: both partners purified
T2 construct: Rvb1p, yeast AAA+ ATPase; Subunit as it stood in the MBP-Nop58p_447-R2TP complex; also called Ruv1p; source: purified as Rvb1/2p heterocomplex, within reconstituted R2TP

[4] = target: B1; assay: as above; conditions: both partners purified
[5] = target: T3, Rvb2p (yeast, UniProt Q12464 1-471); assay: as above; conditions: both partners purified
T3 construct: Rvb2p, yeast AAA+ ATPase; Subunit as it stood in the MBP-Nop58p_447-R2TP complex; also called Ruv2p; source: purified as Rvb1/2p heterocomplex, within reconstituted R2TP
T3 sequence (Q12464 whole entry): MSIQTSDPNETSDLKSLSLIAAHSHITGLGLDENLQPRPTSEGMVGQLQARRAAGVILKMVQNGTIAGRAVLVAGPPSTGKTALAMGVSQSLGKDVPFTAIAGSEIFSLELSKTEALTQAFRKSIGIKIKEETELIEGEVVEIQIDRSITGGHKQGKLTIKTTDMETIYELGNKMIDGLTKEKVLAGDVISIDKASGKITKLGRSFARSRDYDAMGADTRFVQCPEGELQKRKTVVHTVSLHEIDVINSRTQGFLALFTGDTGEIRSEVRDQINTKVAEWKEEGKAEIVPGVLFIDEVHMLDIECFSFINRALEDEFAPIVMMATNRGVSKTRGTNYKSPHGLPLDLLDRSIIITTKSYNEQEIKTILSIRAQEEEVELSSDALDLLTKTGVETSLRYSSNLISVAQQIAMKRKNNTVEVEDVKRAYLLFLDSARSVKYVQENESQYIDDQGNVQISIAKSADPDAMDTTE

T2 sequence (Q03940 whole entry): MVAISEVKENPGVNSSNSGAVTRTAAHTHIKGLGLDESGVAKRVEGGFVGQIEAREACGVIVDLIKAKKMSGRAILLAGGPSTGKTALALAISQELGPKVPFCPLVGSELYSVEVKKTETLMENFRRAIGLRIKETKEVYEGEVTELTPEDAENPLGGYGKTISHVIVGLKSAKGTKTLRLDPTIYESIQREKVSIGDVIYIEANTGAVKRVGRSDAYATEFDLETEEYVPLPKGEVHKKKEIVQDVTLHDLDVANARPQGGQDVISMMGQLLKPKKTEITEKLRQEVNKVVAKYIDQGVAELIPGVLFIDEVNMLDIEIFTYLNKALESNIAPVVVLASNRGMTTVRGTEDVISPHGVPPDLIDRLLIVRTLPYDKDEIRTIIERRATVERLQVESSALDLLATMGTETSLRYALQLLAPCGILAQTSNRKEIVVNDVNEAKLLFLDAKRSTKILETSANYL

| Binder | stoichiometry N [1] | Kd [2] [nM] | binding result [3] | binding result [4] | binding result [5] |
| --- | --- | --- | --- | --- | --- |
| Pih1p-Tah1p heterodimer (complex, yeast, Tah1p, yeast, YCR060W; also called His-Pih1p-Tah1p; source: purified) chain 1: MADFLLRPIKQRHRNEDKYVSVDAADGSVSKIEPIADFVIKTKLLSANGPEKLQDGRKVFINVCHSPLVPKPEVDFNARIVFPLIIQNEWEIPIITSCYRMDHDKKGQECYVWDCCINSDCSRWICDDIQLREILVEWCLESCEIRDSVVLCRDRIAFPKMKKKGAELPALEVLNDELHQDYKAKMHKIIEEEAGDPMSILRGRNDDGDDNNDPDDGTLPPLFPIENKISGAKIEEIDKNEIAHRNLKQAPAPAPAPHEQQEDVPEYEVKMKRFKGAAYKLRILIENKAPNSKPDRFSPSYNFAENILYINGKLSIPLPRDIVVNAADIKIFHIRKERTLYIYI chain 2: MSQFEKQKEQGNSLFKQGLYREAVHCYDQLITAQPQNPVGYSNKAMALIKLGEYTQAIQMCQQGLRYTSTAEHVAIRSKLQYRLELAQGAVGSVQIPVVEVDELPEGYDRS | 1 | 440 | – | – | – |
| Pih1p (natural protein, yeast, UniProt P38768 1-344, looked up, Subunit as it stood in the MBP-Nop58p_447-R2TP complex; source: purified as His-Pih1p-Tah1p, within reconstituted R2TP) MADFLLRPIKQRHRNEDKYVSVDAADGSVSKIEPIADFVIKTKLLSANGPEKLQDGRKVFINVCHSPLVPKPEVDFNARIVFPLIIQNEWEIPIITSCYRMDHDKKGQECYVWDCCINSDCSRWICDDIQLREILVEWCLESCEIRDSVVLCRDRIAFPKMKKKGAELPALEVLNDELHQDYKAKMHKIIEEEAGDPMSILRGRNDDGDDNNDPDDGTLPPLFPIENKISGAKIEEIDKNEIAHRNLKQAPAPAPAPHEQQEDVPEYEVKMKRFKGAAYKLRILIENKAPNSKPDRFSPSYNFAENILYINGKLSIPLPRDIVVNAADIKIFHIRKERTLYIYI | – | – | binds | binds | – |
| B1 | – | – | binds | – | binds |

Source: PMC6934851, “Yeast R2TP Interacts with Extended Termini of Client Protein Nop58p” (Scientific Reports, 2019)
